Consider eight molecules from patent US20240059757A1 (VIR BIOTECHNOLOGY, published 2024).

Test [1] addresses T1, SARS-CoV-2 RBD (residues 331-550 of spike from BetaCoV/Wuhan-Hu-1/2019, accession number MN908947) (SARS-CoV-2 Wuhan-Hu-1, UniProt P0DTC2 331-550). The experiment in a line: BLI (Octet): antibody on Protein A pins, SARS-CoV-2 RBD at 6, 1.5 and 0.4 µg/ml.
The target in test [2] is T2, SARS-CoV-2 RBD-mouse Fc (Sino Biological) (SARS-CoV-2, UniProt P0DTC2 331-541).
For test [3], the target named is T1, SARS-CoV-2 RBD (residues 331-550 of …). The experiment in a line: ELISA.
Test [4] deals with T3, SARS-CoV RBD (Sino Biological) (SARS-CoV, UniProt P59594 306-527). The experiment in a line: ELISA.
The target of test [5] is T4, SARS-CoV Spike protein (SARS-CoV, UniProt P59594 14-1255). The experiment in a line: cell-based or functional assay.
The target of test [6] is T5, SARS-CoV-2 Spike protein (SARS-CoV-2 Wuhan-Hu-1, UniProt P0DTC2 14-1273). Put plainly: cell-based or functional assay.
The target in test [7] is T1, SARS-CoV-2 RBD (residues 331-550 of …). Put plainly: BLI.
The target of test [8] is T3, SARS-CoV RBD (Sino Biological). Put plainly: BLI.
Test [9] concerns the target T4, SARS-CoV Spike protein. The experiment in a line: cell-based or functional assay. This is another data set of the same source.
In test [10] the target is T1, SARS-CoV-2 RBD (residues 331-550 of …).
In test [11] the target is T2, SARS-CoV-2 RBD-mouse Fc (Sino …). The source holds these as a separate data set.
Test [12] addresses T1, SARS-CoV-2 RBD (residues 331-550 of …). The experiment in a line: BLI. The source holds these as a separate data set.
The target in test [13] is T3, SARS-CoV RBD (Sino Biological). The experiment in a line: BLI. This is another data set of the same source.
For test [14], the target named is T4, SARS-CoV Spike protein.
Test [15] has as its target T3, SARS-CoV RBD (Sino Biological).
For test [16], the target named is T5, SARS-CoV-2 Spike protein. The experiment in a line: cell-based or functional assay. This is another data set of the same source.
For test [17], the target named is T1, SARS-CoV-2 RBD (residues 331-550 of …). This is another data set of the same source.
The target of test [18] is T3, SARS-CoV RBD (Sino Biological). The source holds these as a separate data set.
The target in test [19] is T5, SARS-CoV-2 Spike protein. The experiment in a line: cell-based or functional assay. This is another data set of the same source.
Test [20] has as its target T1, SARS-CoV-2 RBD (residues 331-550 of …). The source holds these as a separate data set.
For test [21] the target is unchanged. The source holds these as a separate data set.
The target in test [22] is T3, SARS-CoV RBD (Sino Biological). This is another data set of the same source.
Test [23] deals with T1, SARS-CoV-2 RBD (residues 331-550 of …). The experiment in a line: BLI (Octet): antibody on Protein A pins, SARS-CoV-2 RBD at 6, 1.5 and 0.4 µg/ml. The source holds these as a separate data set.
Test [24] has the same target. Put plainly: ELISA, plate coated with SARS-CoV-2 RBD, OD405nm.
Test [25] has the same target. Put plainly: ELISA, plate coated with SARS-CoV-2 RBD; antibodies as rIgG1-LS.
Test [26] addresses T3, SARS-CoV RBD (Sino Biological). The experiment in a line: ELISA. The source holds these as a separate data set.
For test [27], the target named is T5, SARS-CoV-2 Spike protein. The experiment in a line: cell-based or functional assay. This is another data set of the same source.
Test [28] concerns the target T1, SARS-CoV-2 RBD (residues 331-550 of …). The experiment in a line: ELISA, plate coated with SARS-CoV-2 RBD; antibodies as rIgG1-LS. This is another data set of the same source.
Test [29] has the same target. This is another data set of the same source.

Read-outs that look alike come from different tables or passages of the source. A value given as a limit tells only on which side of the number the result lay.

B1: S2X132 (antibody, V domains shown)
VH: EVQLVESGGGLVQPGGSLRLSCAASGFTVSSNYMSWVRQAPGKGLEWVSVIYSGGNTYYADSVKGRFTISRDNSKNTLYLQMISLRAEDTAVYYCARDRRLPSIIFGLDVWGQGTTVTVSS
VL: QSALTQPASVSGSPGQSITISCTGTSSDVGGNNHVSWYRQHPGKAPKLMIYEVSNRPSGVSNRFSGSKSGNTASLTISGLQAGDEADYYCSSFTTYTTDVVFGGGTKLTVL
The molecule B1 displayed a dissociation constant Kd in [1] of 0.709 nM. Further, the IC50 in test [2] worked out at 0.0248 µg/mL.

B2: S2X259 (antibody, V domains shown)
VH: QVQLVQSGAEVKKPGSSVKVSCKASGGIFNTYTISWVRQAPGQGLEWMGRIILMSGMANYAQKIQGRVTITADKSTSTAYMELTSLRSDDTAVYYCARGFNGNYYGWGDDDAFDISGQGTLVTVYS
VL: QTVLTQPPSVSGAPGQRVTISCTGSNSNIGAGYDVHWYQQLPGTAPKLLICGNSNRPSGVPDRFSGSKSGTSASLAITGLQAEDEADYYCQSYDSSLSGPNWVFGGGTKLTVL
For the molecule B2, the EC50 in test [3] was found to be 0.0343 µg/mL; in test [4], 0.0285 µg/mL; in test [10], 0.00352 µg/mL; in test [14], 0.00215 µg/mL; in [15] it was 0.00151 µg/mL. Besides, the “neutralization IC50” value in test [5] was 0.189 µg/mL; in test [6], 0.046 µg/mL; in test [9], 0.0806 µg/mL; in test [16], 0.184 µg/mL; in [19], 0.231 µg/mL. Further, the Kd in test [7] was 0.0874 nM; in [8] it was 0.862 nM; in [12], at most 0.001 nM; in test [13] it was 0.537 nM. Moreover, the IC50 in [11] was 0.0221 µg/mL; in test [17], 0.00921 µg/mL; in test [18], 0.01 µg/mL. Moreover, the concentration for a half-maximal effect (EC50 (read off the curve)) in test [20] is about 7 µg/mL.

B3: S2X259 Fab (Fab, V domains shown)
VH: QVQLVQSGAEVKKPGSSVKVSCKASGGIFNTYTISWVRQAPGQGLEWMGRIILMSGMANYAQKIQGRVTITADKSTSTAYMELTSLRSDDTAVYYCARGFNGNYYGWGDDDAFDISGQGTLVTVYS
VL: QTVLTQPPSVSGAPGQRVTISCTGSNSNIGAGYDVHWYQQLPGTAPKLLICGNSNRPSGVPDRFSGSKSGTSASLAITGLQAEDEADYYCQSYDSSLSGPNWVFGGGTKLTVL
As to B3, the Kd was determined as 0.08 nM in test [21] and 1.6 nM in test [22].

B4: S2X190 (antibody, V domains shown)
VH: EVQLVESGGGVVQPGRSLRLSCAASGFPFSTYGMHWVRQAPGKGLEWVAVIWYDGSTKYYADSVKGRFTISRDNSKNTLYLQMNSLRAEDTALYYCARVHSSGPGDEYFQHWGQGTLLTVSS
VL: DIVMTQSPSSLSASVGDRVTITCRASQGISSGLAWYQQKPGKGPKVLIYDASSLESGVPSRFSGSASGTDFTLTISSLQPEDFATYFCQQFYSYPLTFGGGTKVEIK
The molecule B4 yielded a Kd in test [23] of 0.923 nM. In addition, the IC50 in test [2] was determined as 0.02 µg/mL.

B5: S2F1 (antibody, V domains shown)
VH: EVQLLESGGGLVQPGGSLRLSCAGSGFSVSNHAMSWVRQAPGKGLEWVSAIGGSDSTTYYADSVKGRFAISRDNSKNTLYLQMNSLRADDTAIYYCAKDNYTSTWFPFDYWGQGTQVIVSS
VL: DVVMTQSPLSLPVTLGQPASISCRSSHSLVHGDGNTYLNWFQQRPGQSPRRLIHKVSNRDSGVPDRFSGSGSGTDFTLKISRVEAEDVGVYYCMQGSYWPPWTFGQGTKVEIN
For B5, in test [24], the binding result is given as “binds”.

B6: S2D60 (antibody, V domains shown)
VH: EVQLVQSGPEVKKPGTSVKVSCKASGFTFMSSAVQWVRQARGQRLEWIGWIVVGSGNTNYTQKFRERVTITRDMSTSTAYMELSSLRSEDTAVYYCAAPRCSGGSCHDGFDIWGQGTMVTVSS
VL: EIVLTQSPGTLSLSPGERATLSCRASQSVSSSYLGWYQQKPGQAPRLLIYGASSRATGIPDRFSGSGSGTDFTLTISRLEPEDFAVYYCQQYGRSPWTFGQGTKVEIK
Turning to B6, the “EC50 (read off the curve)” value in test [25] is about 0.1 µg/mL. For the same molecule, in [26], the binding result is “no binding”. Besides, in [27], the “neutralization IC50” value stood at 0.012 µg/mL, the “neutralization IC80” value was 0.04 µg/mL, the “neutralization IC90” value amounted to 0.084 µg/mL and the “neutralization IC95” value was 0.164 µg/mL.

B7: S2D43 (antibody, V domains shown)
VH: QVTLKESGPTLVKPTQTLTLTCTFSGFSLSTSGVGVGWLRQPPGKALEWLALIYWDDDKRYSPSLKNRLTVTKDTSKNQVVLTMTNLDPVDTATYYCAHDNTLGGSSTWQSTFDYWGQGTLVTVSS
VL: QSVLTQPPSVSEAPRQRVTISCSGSNSNIGNNAVHWYQQLPGKAPKLLIYYDDLLPSGVSDRFSGSKSGTSASLAISGLQSEDEADYYCAAWDDRMNGPVFGGGTKLTVL
As to B7, in [28], the binding result is reported as “binds”.

B8: S2X200 (antibody, V domains shown)
VH: EVHLVESGGGLIQPGGSLRLSCAASGITVSSNYMSWVRQAPGKGLEWVSVIYSGGSTFYADSVKGRFTISRDNSKNTVYLQMNSLRAEDTAVYYCARDLVTYGMDVWGQGTTVTVSS
VL: EIVLTQSPSFLSASVGDRVTITCRASQGISSYLAWYQQKPGKAPKLLIYAASTLQSGVPSRFSGSGSGTEFTLTISSLQPEDFATYYCQQLNGDPPIFGHGTRLEIK
Consider B8, for which, in test [29], the EC50 amounted to 0.00151 µg/mL.
